PMC3360964 (Molecular Cell, 2012)

Legend:
Assay in all cases: pull-down
[1] = target: ELL2-F, affinity-purified (UniProt O00472 1-640)
[2] = target: T1, F-AFF4, wild type, affinity-purified (UniProt Q9UHB7 1-1163)
T1 sequence (looked up): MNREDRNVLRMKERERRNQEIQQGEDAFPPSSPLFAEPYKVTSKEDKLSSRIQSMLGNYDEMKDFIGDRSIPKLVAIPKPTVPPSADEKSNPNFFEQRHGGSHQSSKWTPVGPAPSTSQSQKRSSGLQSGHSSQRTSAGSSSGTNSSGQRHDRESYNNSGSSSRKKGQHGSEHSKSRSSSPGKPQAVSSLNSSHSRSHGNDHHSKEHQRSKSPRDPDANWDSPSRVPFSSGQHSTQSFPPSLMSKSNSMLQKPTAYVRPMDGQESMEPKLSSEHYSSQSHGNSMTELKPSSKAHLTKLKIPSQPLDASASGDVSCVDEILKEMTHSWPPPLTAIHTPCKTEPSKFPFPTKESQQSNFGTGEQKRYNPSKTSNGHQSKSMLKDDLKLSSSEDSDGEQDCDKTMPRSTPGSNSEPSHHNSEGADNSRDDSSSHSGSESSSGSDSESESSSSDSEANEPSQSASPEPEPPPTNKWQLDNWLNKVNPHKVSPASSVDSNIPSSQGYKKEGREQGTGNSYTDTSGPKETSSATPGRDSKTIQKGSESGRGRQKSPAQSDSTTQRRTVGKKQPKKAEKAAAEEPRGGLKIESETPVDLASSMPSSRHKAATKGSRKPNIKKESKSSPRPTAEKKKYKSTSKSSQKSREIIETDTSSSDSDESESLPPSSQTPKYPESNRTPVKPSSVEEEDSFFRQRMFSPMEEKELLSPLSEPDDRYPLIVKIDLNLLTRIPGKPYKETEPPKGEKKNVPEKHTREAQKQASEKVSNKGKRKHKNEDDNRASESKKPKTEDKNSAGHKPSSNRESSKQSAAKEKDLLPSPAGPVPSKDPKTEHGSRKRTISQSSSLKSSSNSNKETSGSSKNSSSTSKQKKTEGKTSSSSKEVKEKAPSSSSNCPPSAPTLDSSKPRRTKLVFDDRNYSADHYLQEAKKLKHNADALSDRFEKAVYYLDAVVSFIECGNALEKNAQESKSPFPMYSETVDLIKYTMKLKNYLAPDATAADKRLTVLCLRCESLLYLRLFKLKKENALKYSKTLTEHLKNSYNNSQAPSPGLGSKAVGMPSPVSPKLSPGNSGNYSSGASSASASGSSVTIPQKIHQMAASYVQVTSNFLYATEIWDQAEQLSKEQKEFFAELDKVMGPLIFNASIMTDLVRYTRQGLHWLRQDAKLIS

[3] = target: T2, F-AFF4(Δ301–400), affinity-purified (UniProt Q9UHB7 1-1163, Δ301–400)
T2 sequence (looked up): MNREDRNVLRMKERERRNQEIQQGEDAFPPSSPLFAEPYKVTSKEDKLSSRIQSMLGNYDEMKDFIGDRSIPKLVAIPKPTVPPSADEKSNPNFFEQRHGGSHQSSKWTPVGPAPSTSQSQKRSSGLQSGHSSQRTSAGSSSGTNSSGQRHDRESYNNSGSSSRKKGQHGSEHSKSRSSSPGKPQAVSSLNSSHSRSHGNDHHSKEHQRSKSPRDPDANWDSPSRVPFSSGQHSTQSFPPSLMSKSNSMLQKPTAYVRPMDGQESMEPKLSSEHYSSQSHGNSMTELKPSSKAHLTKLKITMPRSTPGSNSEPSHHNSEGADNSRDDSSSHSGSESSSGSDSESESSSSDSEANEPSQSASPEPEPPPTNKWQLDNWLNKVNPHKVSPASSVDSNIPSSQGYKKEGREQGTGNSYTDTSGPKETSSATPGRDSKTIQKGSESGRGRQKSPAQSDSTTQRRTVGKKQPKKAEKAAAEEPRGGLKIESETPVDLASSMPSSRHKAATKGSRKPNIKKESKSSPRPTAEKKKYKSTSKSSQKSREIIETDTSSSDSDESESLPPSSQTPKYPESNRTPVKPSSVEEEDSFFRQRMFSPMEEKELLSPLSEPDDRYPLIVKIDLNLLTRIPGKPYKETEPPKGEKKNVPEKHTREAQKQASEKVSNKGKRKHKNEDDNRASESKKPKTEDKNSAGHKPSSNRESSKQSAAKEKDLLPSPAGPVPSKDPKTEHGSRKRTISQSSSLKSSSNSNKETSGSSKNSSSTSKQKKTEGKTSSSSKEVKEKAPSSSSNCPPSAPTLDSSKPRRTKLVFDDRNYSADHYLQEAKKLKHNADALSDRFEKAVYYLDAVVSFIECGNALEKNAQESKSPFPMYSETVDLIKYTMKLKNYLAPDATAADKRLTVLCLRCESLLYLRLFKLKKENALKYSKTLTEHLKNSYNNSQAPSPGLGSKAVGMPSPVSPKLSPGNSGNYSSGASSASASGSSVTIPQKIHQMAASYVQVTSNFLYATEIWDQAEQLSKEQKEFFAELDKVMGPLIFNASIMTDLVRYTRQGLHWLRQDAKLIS

Measured: binding result

Chain of ELL2-F, affinity-purified (O00472 whole entry): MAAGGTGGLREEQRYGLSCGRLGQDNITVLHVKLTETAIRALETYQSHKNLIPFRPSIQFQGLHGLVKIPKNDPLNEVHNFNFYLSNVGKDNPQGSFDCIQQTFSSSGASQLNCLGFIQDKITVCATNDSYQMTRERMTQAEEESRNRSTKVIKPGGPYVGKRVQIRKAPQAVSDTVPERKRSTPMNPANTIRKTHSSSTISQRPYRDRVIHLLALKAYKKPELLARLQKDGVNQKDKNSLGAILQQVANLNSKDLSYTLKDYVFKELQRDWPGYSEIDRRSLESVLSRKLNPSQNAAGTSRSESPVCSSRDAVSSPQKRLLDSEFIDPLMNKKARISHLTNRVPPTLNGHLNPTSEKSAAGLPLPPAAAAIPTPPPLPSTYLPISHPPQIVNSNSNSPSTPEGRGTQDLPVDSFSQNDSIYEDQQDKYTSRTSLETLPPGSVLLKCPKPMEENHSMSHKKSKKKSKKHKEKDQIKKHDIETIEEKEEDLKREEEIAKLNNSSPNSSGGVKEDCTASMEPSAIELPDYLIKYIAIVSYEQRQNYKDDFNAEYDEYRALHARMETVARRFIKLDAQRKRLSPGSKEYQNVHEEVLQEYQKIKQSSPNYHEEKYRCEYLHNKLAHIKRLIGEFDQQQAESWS

B1: HA-Siah1 immobilized on anti-HA beads (enzyme, human, UniProt Q8IUQ4-2 1-313, looked up)
chain: MTGKATPPSLYSWRGVLFTCLPAARTRKRKEMSRQTATALPTGTSKCPPSQRVPALTGTTASNNDLASLFECPVCFDYVLPPILQCQSGHLVCSNCRPKLTCCPTCRGPLGSIRNLAMEKVANSVLFPCKYASSGCEITLPHTEKADHEELCEFRPYSCPCPGASCKWQGSLDAVMPHLMHQHKSITTLQGEDIVFLATDINLPGAVDWVMMQSCFGFHFMLVLEKQEKYDGHQQFFAIVQLIGTRKQAENFAYRLELNGHRRRLTWEATPRSIHEGIATAIMNSDCLVFDTSIAQLFAENGNLGINVTISMC
binds: all assays above
